Key:
[1] = biological target: ΔN15MsDps2 (MsDps2 with the first 15 N-terminal amino acids deleted) (Mycobacterium smegmatis); assay: negative-stain electron microscopy
[2] = biological target: Mycobacterium smegmatis Dps2 (MsDps2), wild type (Mycobacterium smegmatis); assay: SEC

ΔN15MsDps2 (MsDps2 with the first 15 N-terminal amino acids deleted) (domain or fragment)
stoichiometry N [1]: 12

Mycobacterium smegmatis Dps2 (MsDps2), wild type (natural protein)
stoichiometry N [2]: 12

— doi:10.1101/2023.01.16.523357
